Entries after “also recorded” stand apart in the source; their conditions may differ.
Key:
[1] = system: iPSC-derived pancreatic progenitors; assay: Acinar differentiation of iPSC-derived pancreatic progenitors (ICC); type: cell-based, human; conditions: for PDX1 levels / expression / amylase positive clusters / cells: Notch modulation in the presence of FGF10
Procedure: Using the same DMEM base media, cells were then treated daily for seven days with XXI, FGF10, Noggin, Nicotinamide, and Murine Wnt3a (Peprotech). By the end of this stage, cell clustering could be seen.
Planar fixed samples were fixed with 4% paraformaldehyde in PBS for 15 minutes. Following this, they were washed three times with PBS and then incubated with 10% donkey serum with 0.1% Triton-X for one hour. Primary antibodies diluted in the 10% blocking serum were added, and the samples were let incubate for three hours at room temperature or overnight at 4 C. From here, the samples were washed three times for five minutes each with 0.1% TWEEN in PBS. Secondary antibodies diluted at 1:1000 in the blocking serum were added and the samples were allowed to sit one hour at room temperature. Three rounds of five-minute washes with PBS were performed before Hoechst was added at a 1:2000 dilution in PBS. After a 15-minute room temperature incubation, samples were washed with PBS three times before being imaged.
We performed an experiment comparing the use of notch inhibitor XXI vs notch activator sDLL-1 with FGF10. […] We added Wnt3a as it is important.

[2] = system: iPSC-derived pancreatic progenitors; assay: iPan Ductal maturation/specification (qPCR, ICC); type: cell-based, human
Procedure: After 1 day of Phase III, on Day 7, cells were single cell dissociated with TrypLE for 3-6 minutes, washed and seeded at 33% confluency (9.5×10^4 cells/cm^2) in Phase III media plus 10 μM Rho kinase Inhibitor. On Day 8 onwards, cells were treated with Phase IV media—addition of FGF10 (25 ng/ml), EGF (50 ng/ml), and sDLL-1 (25 ng/ml, Peprotech). The base media for phase III and IV consists of DMEM, lx Pen-Strep, 1×B27 without Vitamin A (Thermo Fisher), and Vitamin C (250 μM).
For organoids, Cell Recovery Solution (Corning) was added for an hour in 4° to remove Matrigel then washed 3× with PBS. Total RNA was isolated with RLT buffer (Qiagen), syringed with 23 G needle, then extracted with RNeasy Micro Kit (Qiagen) according to the manufacturer's instructions. The concentration and the purity of RNA was determined with NanoDrop. 1-2 μg RNA was reverse transcribed to cDNA High-Capacity cDNA Reverse Transcription kit (Thermo Fisher). Real-time qPCR was performed (technical replicates, n=3-4) using SYBR Master Mix (Applied Biosystems, #4472952) and specific primer sequences to each gene (Table 1), on a CFX384 Real Time system (Bio-Rad). Human RPL13 was used as the reference gene and relative expression was determined using 2-ΔΔ Ct method.
Planar cultures were fixed with 4% PFA for 15 minutes, washed with PBS and then blocked overnight at 4° C. with 10% donkey serum containing 0.1% Triton-X100. After overnight incubation with primary antibodies at 4° C., cells were washed with 0.1% TWEEN-20 3× for 5 min, incubated with secondary antibodies for an hour at RT, and finally incubated with Hoechst 33342 (1:2000 dilution) for 15 minutes for nuclear counterstaining.
To optimize the ductal maturation phase, the effect of dissociating pancreatic progenitors on Day 7 and adding growth factor EGF and the Notch activating ligand sDLL-1 to the cultures was explored. FGF10 was also added at this time to increase proliferation of pancreatic cells. Based on our results, we incorporated a dissociation step prior to initiating EGF and Notch signaling in our defined iPan Ductal protocol (FIG. 2A). Dissociation of pancreatic progenitor cells inhibited acinar differentiation by Day 21 (FIG. 2B).

[3] = sDLL1 for 2 weeks started late, at pancreatic endoderm stage, Day 21

C[C@H](NC(=O)Cc1cc(F)cc(F)c1)C(=O)N[C@H]1N=C(c2ccccc2)c2ccccc2N(C)C1=O [XXI]
PDX1 levels / expression [1]: reduces PDX1 expression; also recorded: lowest PDX1 levels
amylase positive clusters / cells [1]: increases islands of amylase positive cells; also recorded: most increase in amylase positive clusters

EGF: growth factor EGF
survival and confluency (immunocytochemistry) ([2]; dissociated cells exposed to EGF): increased survival and confluency
levels of ductal markers KRT19, HNF1B, SOX9, FOXA2 ([2]; dissociated cells with exposure to EGF): increased levels of ductal KRT19, HNF1B, SOX9, and FOXA2 markers

B1: FGF10: growth factor added to increase proliferation of pancreatic cells; activates PDX1 (protein, UniProt O15520 38-208, looked up)
Fibroblast growth factor 10: QALGQDMVSPEATNSSSSSFSSPSSAGRHVRSYNHLQGDVRWRKLFSFTKYFLKIEKNGKVSGTKKENCPYSILEITSVEIGVVAVKAINSNYYLAMNKKGKLYGSKEFNNDCKLKERIEENGYNTYASFNWQHNGRQMYVALNGKGAPRRGQKTRRKNTSAHFLPMVVHS
CTRC and amylase positive cell expression ([1]; FGF10 tested at 0, 2.5, 20 and 50 ng/mL, result for 20 ng): most CTRC and amylase positive cell expression

B2: sDLL1: Notch-activating ligand; extracellular signaling domain of DLL1 (protein, UniProt O00548 18-545, looked up)
extracellular domain: QVWSSGVFELKLQEFVNKKGLLGNRNCCRGGAGPPPCACRTFFRVCLKHYQASVSPEPPCTYGSAVTPVLGVDSFSLPDGGGADSAFSNPIRFPFGFTWPGTFSLIIEALHTDSPDDLATENPERLISRLATQRHLTVGEEWSQDLHSSGRTDLKYSYRFVCDEHYYGEGCSVFCRPRDDAFGHFTCGERGEKVCNPGWKGPYCTEPICLPGCDEQHGFCDKPGECKCRVGWQGRYCDECIRYPGCLHGTCQQPWQCNCQEGWGGLFCNQDLNYCTHHKPCKNGATCTNTGQGSYTCSCRPGYTGATCELGIDECDPSPCKNGGSCTDLENSYSCTCPPGFYGKICELSAMTCADGPCFNGGRCSDSPDGGYSCRCPVGYSGFNCEKKIDYCSSSPCSNGAKCVDLGDAYLCRCQAGFSGRHCDDNVDDCASSPCANGGTCRDGVNDFSCTCPPGYTGRNCSAPVSRCEHAPCHNGATCHERGHRYVCECARGYGGPNCQFLLPELPPGPAVVDLTEKLEGQGGPFPW
modifications: extracellular domain
notes: extracellular signaling domain of DLL1
C-Peptide+ endocrine cells [2, 3]: C-Peptide was elevated; also recorded: higher amount of C-Peptide^+ endocrine cells
ductal markers [2, 3]: no increase in ductal markers
PDX1 levels / expression [1]: does not increase the Amylase positive clusters or decrease PDX1 levels
amylase positive clusters / cells [1]: does not increase the Amylase positive clusters
